The target in one data set is PavDREB1E-GST (Prunus avium, UniProt A0A6P5RM44 1-238). The data set can be described thus: EMSA; unlabeled probe competes; Chemiluminescent EMSA kit (Beyotime), manufacturer's instructions; 2 ug PavDREB1E-GST in PavD8 assays; buffer, salt, pH and temperature not stated. Conditions: protein: recombinant; tags: GST; label: biotin; only one strand given. Background: Mobility shift assays separate free from complexed probe on a gel.

The target of the next data set is PavDREB1E-GST;PavD8-GST (Prunus avium;Prunus avium, UniProt A0A6P5RM44;A0A6P5SVV0 1-238;1-537, |). The data set can be described thus: EMSA; 2 ug PavDREB1E-GST with 2, 4, 6 ug PavD8-GST; PavD8 enhances the shifted band; Chemiluminescent EMSA kit (Beyotime), manufacturer's instructions; 2 ug PavDREB1E-GST in PavD8 assays; buffer, salt, pH and temperature not stated. The note with it: protein: recombinant;recombinant; tags: GST;GST; label: biotin; only one strand given.
PavDREB1E-GST;PavD8-GST, sequence (chain, as listed by the source |, chain 1 of 2): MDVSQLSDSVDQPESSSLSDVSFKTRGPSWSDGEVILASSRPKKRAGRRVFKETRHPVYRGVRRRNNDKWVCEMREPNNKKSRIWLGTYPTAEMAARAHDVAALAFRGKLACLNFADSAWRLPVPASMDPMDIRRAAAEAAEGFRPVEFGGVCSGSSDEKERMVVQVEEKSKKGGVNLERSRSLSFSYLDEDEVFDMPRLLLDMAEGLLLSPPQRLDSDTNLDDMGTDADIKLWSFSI
PavDREB1E-GST;PavD8-GST, sequence (chain, as listed by the source |, chain 2 of 2): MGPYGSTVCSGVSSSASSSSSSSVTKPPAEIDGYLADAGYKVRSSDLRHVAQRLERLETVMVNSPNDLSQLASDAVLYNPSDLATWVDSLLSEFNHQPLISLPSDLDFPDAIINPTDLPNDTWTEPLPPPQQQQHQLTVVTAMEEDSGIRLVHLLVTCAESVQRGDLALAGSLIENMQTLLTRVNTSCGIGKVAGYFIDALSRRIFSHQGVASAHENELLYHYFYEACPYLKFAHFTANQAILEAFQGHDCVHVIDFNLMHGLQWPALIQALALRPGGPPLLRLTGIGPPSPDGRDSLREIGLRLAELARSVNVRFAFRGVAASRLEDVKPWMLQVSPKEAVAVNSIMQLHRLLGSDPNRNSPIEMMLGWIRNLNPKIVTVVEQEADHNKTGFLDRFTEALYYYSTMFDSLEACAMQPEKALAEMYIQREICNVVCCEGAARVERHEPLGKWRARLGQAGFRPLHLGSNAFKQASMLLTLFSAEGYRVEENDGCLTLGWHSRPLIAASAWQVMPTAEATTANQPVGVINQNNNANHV

The record followed here is paper PMC12700780, “The PavDREB1E–PavD8–PavHY5 module integrates light and gibberellin signals to regulate sweet cherry anthocyanin biosynthesis”.

PavDREB1E-GST, sequence (A0A6P5RM44 entry or part of it): as the sequence (chain, as listed by the source |, chain 1 of 2) above

B1: ProPavUFGT probe (dsDNA)
DNA 1: ACTTCACGAGCTCATCGACTAATAAGAAAG
DNA 2: CTTTCTTATTAGTCGATGAGCTCGTGAAGT
Consider B1, for which the binding result with PavDREB1E-GST and with PavDREB1E-GST;PavD8-GST was “binds” in each case.

B2: ProPavCHS probe (dsDNA)
DNA 1: GGGAAAGAAATTAAGTCGGTAGATGATATT
DNA 2: AATATCATCTACCGACTTAATTTCTTTCCC
B2: the binding result with PavDREB1E-GST and with PavDREB1E-GST;PavD8-GST was “binds” each time.

B3: ProPavDFR probe (dsDNA)
DNA 1: GTAATTACCACCGACCAAAAAAGAACATTG
DNA 2: CAATGTTCTTTTTTGGTCGGTGGTAATTAC
Take B3: the binding result in the data set with PavDREB1E-GST and in the data set with PavDREB1E-GST;PavD8-GST was “binds” throughout.
